Measurements from paper PMC2290040 (The Journal of Cell Biology, 1992).

Experiments:
Experiment in all cases: co-IP
[1] = target: T1, RHL-1 truncated at the carboxy terminus, product of 260 aa (rat, UniProt P02706 1-260, [35S]methionine label)
T1 sequence (looked up): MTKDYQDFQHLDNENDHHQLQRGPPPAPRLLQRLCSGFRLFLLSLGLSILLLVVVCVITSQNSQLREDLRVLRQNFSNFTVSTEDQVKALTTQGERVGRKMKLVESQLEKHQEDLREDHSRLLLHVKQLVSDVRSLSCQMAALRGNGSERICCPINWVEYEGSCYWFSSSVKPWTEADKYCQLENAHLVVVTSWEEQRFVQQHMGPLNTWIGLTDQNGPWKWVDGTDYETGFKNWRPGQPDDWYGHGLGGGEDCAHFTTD

[2] = target: T2, RHL-1 truncated at the carboxy terminus, product of 204 aa (rat, UniProt P02706 1-204, [35S]methionine label)
T2 sequence (looked up): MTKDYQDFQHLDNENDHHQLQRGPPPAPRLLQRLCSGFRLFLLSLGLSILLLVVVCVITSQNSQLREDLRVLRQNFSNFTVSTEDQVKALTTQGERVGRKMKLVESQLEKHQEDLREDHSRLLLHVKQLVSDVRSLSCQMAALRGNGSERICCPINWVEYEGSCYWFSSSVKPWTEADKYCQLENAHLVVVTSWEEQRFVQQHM

[3] = target: T3, RHL-1 truncated at the carboxy terminus, product of 267 aa (rat, UniProt P02706 1-267, [35S]methionine label)
T3 sequence (looked up): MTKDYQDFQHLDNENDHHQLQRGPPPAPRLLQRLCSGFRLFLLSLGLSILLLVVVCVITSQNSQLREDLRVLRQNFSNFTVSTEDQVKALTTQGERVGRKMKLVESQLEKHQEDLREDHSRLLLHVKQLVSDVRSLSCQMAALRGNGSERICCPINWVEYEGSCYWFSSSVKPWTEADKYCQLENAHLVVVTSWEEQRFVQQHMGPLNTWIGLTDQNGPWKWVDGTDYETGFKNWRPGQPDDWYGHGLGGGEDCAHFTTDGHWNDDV

percent of RHL-2/3 coimmunoprecipitated, relative to full-length RHL-1 [1]: 100%
percent of RHL-2/3 coimmunoprecipitated, relative to full-length RHL-1 [2]: 88%
percent of RHL-2/3 coimmunoprecipitated, relative to full-length RHL-1 [3]: 100%
B1: rat hepatic lectin subunit RHL-2/3 (subunit of the rat asialoglycoprotein receptor), full length (natural protein, UniProt P08290 1-301, looked up)
chain: MEKDFQDIQQLDSEENDHQLIGDEEQGSHVQNLRTENPRWGGQPPSRPFPQRLCSKFRLSLLALAFNILLLVVICVVSSQSMQLQKEFWTLKETLSNFSTTTLMEFKALDSHGGSRNDNLTSWETILEKKQKDIKADHSTLLFHLKHFPLDLRTLTCQLAFFLSNGTECCPVNWVEFGGSCYWFSRDGLTWAEADQYCQMENAHLLVINSREEQEFVVKHRGAFHIWIGLTDKDGSWKWVDGTEYRSNFKNWAFTQPDNWQGHEEGGSEDCAEILSDGLWNDNFCQQVNRWACERKRDITY
modifications: [35S]methionine label; glycosylated by the microsomes
